Measured values taken from patent US6673354B2, “Compositions and methods for treating papillomavirus-infected cells” (priority 1998, dated 2004).

What was measured:
[1] = target: T1, epitope tagged full length HPV16 E1 (EE16-E1) (human papillomavirus type 16, UniProt P03114 1-649); test: inhibition of HPV16 E1-E2 co-immunoprecipitation by peptide; competitor HPV16 E2
T1 construct: range 1-649; also called EE-E1; HPV16 EE-E1
T1 sequence: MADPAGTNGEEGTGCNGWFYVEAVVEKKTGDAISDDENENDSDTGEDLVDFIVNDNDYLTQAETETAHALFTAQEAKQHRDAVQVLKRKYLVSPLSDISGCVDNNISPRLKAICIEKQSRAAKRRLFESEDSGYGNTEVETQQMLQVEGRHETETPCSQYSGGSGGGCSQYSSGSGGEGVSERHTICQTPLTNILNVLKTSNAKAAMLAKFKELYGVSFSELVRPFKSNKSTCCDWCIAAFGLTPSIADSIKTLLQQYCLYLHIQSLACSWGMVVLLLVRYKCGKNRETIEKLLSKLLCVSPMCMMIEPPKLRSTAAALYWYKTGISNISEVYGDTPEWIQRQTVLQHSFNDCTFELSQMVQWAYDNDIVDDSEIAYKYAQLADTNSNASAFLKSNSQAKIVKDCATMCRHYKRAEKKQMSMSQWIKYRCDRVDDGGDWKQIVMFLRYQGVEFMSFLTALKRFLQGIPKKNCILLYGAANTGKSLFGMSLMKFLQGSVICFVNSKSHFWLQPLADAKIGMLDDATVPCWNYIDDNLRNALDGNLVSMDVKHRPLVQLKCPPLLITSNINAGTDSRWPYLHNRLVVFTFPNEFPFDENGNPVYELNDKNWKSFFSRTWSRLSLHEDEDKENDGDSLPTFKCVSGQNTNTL

[2] = target: T2, HPV11 EE-E1 (epitope tagged HPV11 E1) (human papillomavirus type 11, UniProt P04014 1-649); test: co-immunoprecipitation with anti-EE antibody, Western blot for E2
T2 sequence: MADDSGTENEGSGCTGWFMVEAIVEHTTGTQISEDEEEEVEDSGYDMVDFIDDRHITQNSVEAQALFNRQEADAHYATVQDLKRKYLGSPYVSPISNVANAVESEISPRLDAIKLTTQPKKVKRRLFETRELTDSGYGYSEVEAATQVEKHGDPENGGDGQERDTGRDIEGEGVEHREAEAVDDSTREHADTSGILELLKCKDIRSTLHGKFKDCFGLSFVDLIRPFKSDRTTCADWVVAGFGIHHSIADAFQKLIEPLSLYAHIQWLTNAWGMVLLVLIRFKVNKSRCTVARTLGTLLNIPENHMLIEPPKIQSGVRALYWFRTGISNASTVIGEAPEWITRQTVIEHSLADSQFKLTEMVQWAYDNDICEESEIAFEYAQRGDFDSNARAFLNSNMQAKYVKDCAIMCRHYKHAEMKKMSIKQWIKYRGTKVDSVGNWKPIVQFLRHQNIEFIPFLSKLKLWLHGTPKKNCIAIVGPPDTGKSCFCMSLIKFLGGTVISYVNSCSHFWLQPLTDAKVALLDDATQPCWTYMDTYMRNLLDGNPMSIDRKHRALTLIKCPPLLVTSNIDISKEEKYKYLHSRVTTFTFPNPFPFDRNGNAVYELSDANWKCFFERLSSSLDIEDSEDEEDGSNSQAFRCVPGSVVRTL

[3] = target: T3, EE-EIC (epitope tagged carboxy terminal domain of HPV16 E1) (human papillomavirus type 16, UniProt P03114 424-649); test: in vitro E1-E2 competition binding assay with EE-EIC, 10-40 µM peptide, FIG. 14
T3 construct: range 424-649; limits uncertain; also called HPV-16 EE-EIC; EE-E1C
T3 sequence: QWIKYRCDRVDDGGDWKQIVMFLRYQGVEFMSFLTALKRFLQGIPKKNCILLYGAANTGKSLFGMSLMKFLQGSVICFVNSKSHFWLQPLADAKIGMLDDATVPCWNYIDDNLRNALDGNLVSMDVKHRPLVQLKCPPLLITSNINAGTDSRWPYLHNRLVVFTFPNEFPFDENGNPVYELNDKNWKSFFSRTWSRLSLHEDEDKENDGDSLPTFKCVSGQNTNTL

HIDYWKHMRLECAIYYKAREMGF (also called 23-mer) [E2N-WP23 (peptide of HPV16 E2 amino acids 29-51)]
IC50 [1]: 5 µM

B1: HPV16 E2 E39A mutant (other)
chain: METLCQRLNVCQDKILTHYENDSTDLRDHIDYWKHMRLACAIYYKAREMGFKHINHQVVPTLAVSKNKALQAIELQLTLETIYNSQYSNEKWTLQDVSLEVYLTAPTGCIKKHGYTVEVQFDGDICNTMHYTNWTHIYICEEASVTVVEGQVDYYGLYYVHEGIRTYFVQFKDDAEKYSKNKVWEVHAGGQVILCPTSVFSSNEVSSPEIIRQHLANHPAATHTKAVALGTEETQTTIQRPRSEPDTGNPCHTTKLLHRDSVDSAPILTAFNSSHKGRINCNSNTTPIVHLKGDANTLKCLRYRFKKHCTLYTAVSSTWHWTGHNVKHKSAIVTLTYDSEWQRDQFLSQVKIPKTITVSTGFMSI
notes: also called E39A replication defective HPV16 E2 mutant
binding result [2]: no binding

WKHMRLECAIYYKAR (also called 15-mer; wild-type peptide) [E2N-WP15 (peptide of HPV16 E2 residues 33-47)]
IC50 [1]: 7.5 µM

ERQIKIWFQNRRMKWKKGGWKHMRLECAIYYKAR (also called Antennapedia fusion peptide) [Ant-WP (Drosophila Antennapedia aa 42-58, Gly-Gly spacer, WP15)]
binding result [3]: binds
